Blank lines part the entries; values can stand above or below the molecule they belong to.
Assays:
[1] = target: SrpI encapsulin shell protein with C-terminal 6X-His tag, from inclusion bodies, refolded (Synechococcus elongatus PCC 7942) (UniProt Q55032); test: negative stain TEM; apo-SrpI and holo-SrpI (CyD loaded by refolding) at 300 nM in 50 mM CAPS pH 10, 250 mM arginine, 150 mM NaCl; uranyl formate; 3D reconstruction without symmetry, ~18 Å; difference map
[2] = target: T1, encapsulated CyD (CyD-loaded SrpI encapsulin) (Synechococcus elongatus, UniProt Q8KUU5); test: coupled alanine dehydrogenase assay, NADH fluorescence; assay type: biochemical; conditions: 25 mM Tris-HCl pH 8, 150 mM NaCl, 5 mM NAD+, 25 °C, 200 nM enzyme; CyD encapsulated in SrpI shell
T1 construct: E. coli; 1-2 CyD copies seen in difference map; with Type 2A encapsulin shell protein SrpI
T1 sequence (Q8KUU5 1-626): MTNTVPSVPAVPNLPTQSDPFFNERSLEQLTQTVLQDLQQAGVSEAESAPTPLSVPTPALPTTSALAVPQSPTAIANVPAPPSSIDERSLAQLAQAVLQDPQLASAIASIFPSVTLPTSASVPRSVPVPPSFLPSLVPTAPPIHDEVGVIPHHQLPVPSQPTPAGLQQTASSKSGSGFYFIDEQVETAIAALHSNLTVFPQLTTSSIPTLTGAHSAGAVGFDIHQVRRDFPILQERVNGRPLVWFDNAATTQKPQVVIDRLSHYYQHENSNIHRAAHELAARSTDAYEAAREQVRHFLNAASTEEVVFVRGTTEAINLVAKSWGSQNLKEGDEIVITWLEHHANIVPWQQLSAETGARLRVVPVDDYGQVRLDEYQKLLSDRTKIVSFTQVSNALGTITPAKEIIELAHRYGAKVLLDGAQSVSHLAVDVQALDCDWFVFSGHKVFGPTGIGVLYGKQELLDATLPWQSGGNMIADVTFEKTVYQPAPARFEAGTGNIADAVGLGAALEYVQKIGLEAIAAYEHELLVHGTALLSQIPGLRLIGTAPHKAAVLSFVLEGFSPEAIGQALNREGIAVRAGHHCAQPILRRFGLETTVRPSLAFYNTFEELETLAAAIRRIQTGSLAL
T1 sequence (Q55032 1-306 partner): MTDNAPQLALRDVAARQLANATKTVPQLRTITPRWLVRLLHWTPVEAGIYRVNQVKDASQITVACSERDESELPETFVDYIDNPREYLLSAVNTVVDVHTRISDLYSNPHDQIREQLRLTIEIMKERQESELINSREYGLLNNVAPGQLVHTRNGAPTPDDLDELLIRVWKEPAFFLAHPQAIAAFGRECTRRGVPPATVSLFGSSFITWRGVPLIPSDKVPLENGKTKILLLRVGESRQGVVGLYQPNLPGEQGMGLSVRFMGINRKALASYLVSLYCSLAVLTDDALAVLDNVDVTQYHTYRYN

[3] = target: T2, CyD (cysteine desulfurase, unencapsulated) (Synechococcus elongatus, UniProt Q8KUU5); test: as above; assay type: biochemical; conditions: 25 mM Tris-HCl pH 8, 150 mM NaCl, 5 mM NAD+, 25 °C, 200 nM enzyme
T2 construct: full length incl; 225-residue N-terminal domain; N-terminal His-SUMO tag cut off; E. coli BL21(DE3) LOBSTR; 68 kDa; PLP enzyme
T2 sequence (Q8KUU5 1-626): T1 sequence (Q8KUU5 1-626)

[4] = target: T3, ΔNTD-CyD (unencapsulated) (Synechococcus elongatus, UniProt Q8KUU5); test: as above; assay type: biochemical; conditions: 25 mM Tris-HCl pH 8, 150 mM NaCl, 5 mM NAD+, 25 °C, 200 nM enzyme
T3 construct: N-terminal His-SUMO tag cut off; E. coli; 45 kDa
T3 sequence (Q8KUU5 226-626 limits assumed): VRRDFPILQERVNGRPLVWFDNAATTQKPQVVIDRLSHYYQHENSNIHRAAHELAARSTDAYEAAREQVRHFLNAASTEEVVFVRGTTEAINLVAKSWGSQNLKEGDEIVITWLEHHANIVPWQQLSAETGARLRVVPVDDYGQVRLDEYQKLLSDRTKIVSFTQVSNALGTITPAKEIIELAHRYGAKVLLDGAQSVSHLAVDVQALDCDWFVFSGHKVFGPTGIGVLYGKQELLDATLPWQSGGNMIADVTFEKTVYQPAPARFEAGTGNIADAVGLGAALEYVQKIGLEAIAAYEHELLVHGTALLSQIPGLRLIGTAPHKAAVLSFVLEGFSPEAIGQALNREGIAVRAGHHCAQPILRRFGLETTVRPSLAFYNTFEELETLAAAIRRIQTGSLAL

[5] = target: the molecule itself; test: cryo-EM structure; purified holo-SrpI, 2 mg/mL in 50 mM CAPS pH 10, 250 mM arginine, 150 mM NaCl, 0.05% NP-40; 2.2 Å; symmetry expansion and focused classification for cargo density
[6] = target: T4, SrpI encapsulin shell protein with C-terminal 6X-His tag, from inclusion bodies, refolded (Synechococcus elongatus (strain ATCC …, UniProt Q55032)); test: in vitro cargo loading (co-refolding), SEC co-elution and SDS-PAGE/sfGFP fluorescence; shell unfolded in GuHCl and refolded by dilution in the presence of cargo (encapsulation; CAPS pH 10, 250 mM arginine, glycerol, DTT); NTD fused to sfGFP
T4 chain: T1 sequence (Q55032 1-306 partner)

[7] = target: the molecule itself; test: non-denaturing SDS-PAGE; purified encapsulin, samples not heat-denatured compared with samples heated at 95°C for 15 min

copies of CyD in the difference density of the loaded compartment [1]: 1 to 2 copies
Molecule: Full-length cysteine desulfurase CyD (Synpcc7942_B2661), purified (enzyme)

Molecule: N[C@@H](CS)C(=O)O [L-cysteine]
coupled alanine dehydrogenase assay, NADH fluorescence [2]: the encapsulated CyD was roughly sevenfold more active than unencapsulated CyD
coupled alanine dehydrogenase assay, NADH fluorescence [3]: Unencapsulated CyD was active towards a cysteine substrate
coupled alanine dehydrogenase assay, NADH fluorescence [4]: the N-terminal domain had no effect on catalytic activity

B1: SrpI encapsulin shell protein with C-terminal 6X-His tag, from inclusion bodies, refolded (natural protein, Synechococcus elongatus PCC 7942)
chain: T1 sequence (Q55032 1-306 partner)
notes: monomer 35 kDa; T = 1 icosahedral capsid of 60 subunits by cryo-EM; also called apo-SrpI; holo-SrpI (when loaded with CyD); copies: 60
stoichiometry N [5]: 60 subunits

binding result [6]: binds
B2: CyD N-terminal domain (residues 1–225) fused to sfGFP (protein)
chain: MTNTVPSVPAVPNLPTQSDPFFNERSLEQLTQTVLQDLQQAGVSEAESAPTPLSVPTPALPTTSALAVPQSPTAIANVPAPPSSIDERSLAQLAQAVLQDPQLASAIASIFPSVTLPTSASVPRSVPVPPSFLPSLVPTAPPIHDEVGVIPHHQLPVPSQPTPAGLQQTASSKSGSGFYFIDEQVETAIAALHSNLTVFPQLTTSSIPTLTGAHSAGAVGFDIHQ

B3: Thermotoga maritima Family 1 encapsulin shell protein (natural protein)
chain: MEFLKRSFAPLTEKQWQEIDNRAREIFKTQLYGRKFVDVEGPYGWEYAAHPLGEVEVLSDENEVVKWGLRKSLPLIELRATFTLDLWELDNLERGKPNVDLSSLEETVRKVAEFEDEVIFRGCEKSGVKGLLSFEERKIECGSTPKDLLEAIVRALSIFSKDGIEGPYTLVINTDRWINFLKEEAGHYPLEKRVEECLRGGKIITTPRIEDALVVSERGGDFKLILGQDLSIGYEDREKDAVRLFITETFTFQVVNPEALILLKF
notes: Family 1 encapsulin shell protein, Thermotoga maritima; also called Tm Enc; T. maritima encapsulin; source: purified
binding result [7]: binds
